Test: soluble fraction after stress (log2 fold change); higher = more stays soluble; pooled small domains, quantitative proteomics
Conditions: stress: 50 degC
In short: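 Quantitative proteomics served as the high-throughput read-out for pooled custom libraries of small protein domains. Each was stressed at 50°C. Aggregation propensity is expressed as the base-two log fold change in soluble protein after stress. A higher value means a larger share of the protein remains in solution.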

Sequence | soluble fraction (log2)
HMKKVRIPDDPEEAYRKALKTAMNIVGYKDNTEFTLREKLSERGYSGETVDAVAEFMKSKGYV | 0.245
HMIMHLNQIIRNKRLAAGLTQEALAQKVGVTAPAVSKWEKGISYPDITLLPILARNLNTDVNTLLDFSA | -0.641
HMKDVVAPMSGRVVRLMVAAGDEVVKRQALVVVEAMKMENVLTAPKEGRIKKVPVREGMTVEVGQTLVSFE | -0.221
HMHDYYDSIDAVTHDKSYESNLVFALKLGYTETQLQKALLKLGKKAREDQILEELIRIQKSSKA | 0.114
HMEQSLNTYSIRTVKESLFLAETKNLNKIEKLVEGIEGRLTLSEALVLFSDKLNAMSVLSHVNANT | -0.148
HMVDSTDLIPLLIKVSREKQGNKKLNWGEWLKIPENIYLKQINENIARKVFEDTNDLIDEAVNYINRKRRN | -0.602
HMDAEWRTLTLAPEQHQQRLDRALADSLPEFSRSYVQQLIDTGMVRVNGVLAAKSAQRVKALDQVQVELR | -0.229
HMLKSGSAVAQARDVILEKGVPVHINEILDALGKGDTREAKASLTSSLAAYVRRGEIFTRPAPNTFGLVEL | -0.372
HMDKVEQLMQNPVIQEKMSEGDRELLRNASLVVLGRLEDDGSIIQRFVELFGEEAYERLKSELM | 0.259
HMNIEDFKDKVKELKQYTYQELVEDVKLKTDRADVILPASKIYLEAMQQAKVDSIIVPKVGLAEGVAR | 0.0593
HMGGLIDQSIQEIIDKYSVPGKKIQKAQRLKIVAEMHTKGIFKMRGGVQQAAQALGVTRYTVYNDLEVMN | -2.89
HMEYSTLEIYSQTKKDLIEKSPHLNKVVYDKDDGYIYLLSFEKEDDLTSFKSNIENDSDIKRIEANV | 0.0917
HMNPLPALLRYFRQKAGLTQQDVAAALSISRSGYANYEEGRNIPNIEQAIKLSELLNHDFLYAYTLSS | -1.99
HMYVKKSSFVKKSLNNYEFKITDNTNDLLIFYKGMLPDLFREEQGIVVEGLIDKNNNIVASKV | -0.0872
HMNSTSGIAGVGYWINQYRKKKGMSPVDKKSPLVRRVYDWVQEQYDEGRITIISDAELTRQTELAMEA | -0.771
HMGEIHAQIPGLVSHLFVKEGNTVQVEQKLFILEAMKMENEIDSPIQGTVKRIHIATGSKVEKGDLIMEIS | -0.505
HMPALELLVESKKPLLIHGEKIAEDINLFDREKYFIDDELIRIVKEFPSLKIILEHVSSKYGAD | -1.5
HMTPTNILIVEDEKEIRRFVRTALESEGLRVFESETLQRGLIEAGTRKPDLIILDLGLPDGDGLSYIRDLR | -0.123
HMGTVFTDIMTDIASGKFPNVFPDSLEAQIQKNVTMAPDKLSATLQYGDKSVILPTTKGKEAAEAAVKAA | -0.0555
HMGAAVEVISLRYRSAAELLPIVRSLLSTEGKISADERTNSLIIVDSDEAVARVIHSLATLDT | -0.125
HMDVNSRIRQFLKKMKITVQTFESSIGKTNGYIAHTKSPTAGVLAEIAKVYPDLNLDWLITGEGEMLKN | -0.468
HMAVKYTKDDFLYTEKPYEAIYDYKNDPFMHNLKIEQMAQQAAEVGVKTFKGLYKNYVKMREMQRGANV | 0.14
HMLLPANLTKSQRNIAERVARGQSNLEIAADLNITERTVKAHLTSIYEKTKTGNRLNLALLINLG | -0.442
HMDFGMPEELQKKLDKMPALKAAFEALTPGRQRGYIFYFSQPKQSKTRELRIEKSIEQIMNGKGLND | -0.115
HMVVYDAELLLNINPGMSYEEVKEMLGDPGMIIAGNDAENSVYRWSTGGISFMGRFENGALIRKSIISP | -0.621

Sequence | soluble fraction (log2)
HMSSSYTEMQLDKLKKLLEKETLLSSEKSELKSLIHDFDKIPEVVSPLIVGEYLRLKNKYIAVINSLE | -0.214
HMGELDPKIIAQINTFLQGITKLIEHPGNKDAKKTALGALHKLTFDQNITANFGKQLGQLDQVIQSSEET | 0.112
HMVMTTVPEVLGMDISKAASLLTGKNLDYDYDLVESDKPKDQVIEQDVVKGTEVPEGTVIHLKVSKGPA | 0.228
HMGHEISLNNSRFLKLLNKTKISISNDDTRHYLNGIFLHLTEAHGRQFLTGVATDSHRLSSSSLEID | -0.0045
HMDTVSYSTLLRDIDAKEIKQLDLVPGRREVRVQYNDGRRVTVPVFANDNQILRAAESSGTPLTVV | 0.183
HMEHETTQLELNAPGQRLDAALALALPDTSRAQIQQWIKQGLVTDQAGTALLQASLKLKSPLNVVLQRPI | 0.178
HMRRRTLRQGATGSDVHAVQRLLNVDGAGLRTDGIFGPATERAVIAYQRKHGLAVDGVVGRETWTALLG | -0.61
HMVDFHAAYSILRIAPGASWQEIQAAYEKLNDAWREDRYPQVPFWNEKAAFKRREVEQAYEKLRKFHALRH | -0.845
HMQNNITISKEIELRTGPDDTYPTLKKVTAGDNVEMLSKSDTWYEIKTNDSFVGWVPGWSIL | 0.0818
HMKISDMIETNLKFLRGKHSISQAELAESLGIPRTTLSAYERGFVEPNIELMLKMAKYFNVSLDDLIAYN | -1.88
HMTNPPTPADTLFNTVRGVLQSILKSPMKDTEVASALNVSKAQARSWLQRLSDEGLIEKRKNPTAYVL | -0.238
HMSDIATLVPGPTDAELAASALRGLDAALDADTPVRLSLGEPGGEVEVPRSVLAALARVLDSFAHGEGVTL | -0.136
HMIDEQDLKKYILISTSVEELTDYLGATDRMLYDYLYSLKHVGQYWQLNERFLLDLYKLPNLVIVDKEDLE | -0.136
HMAKRTVPSVAEAIDNFRRQHRRMPSYAEMLPLLGVRSKSVVHFWINKLLENGLLEKDDKGYLTPGS | -0.00958
HMPESETIMVDVKGAVQSEGVYELPSTARVNDAIEAAGGFSDQADKKSVNLAQKLSDEAVVYVASQGENV | 0.207
HMPSALGDKIRAARKALKLSLEDLAEKVSSSKSYMWELENRDEPNPGADLLMRIAAALNVTTEHLLGP | -0.0736
HMGPLTMGQRIVRLRTQAGLSQDALAEQLGVSRQSVSKWETDGSVPDLDRLVKLSKVFGVTLDELVKG | -0.024
HMEDGEVTVPDLRGLTIKEAGTILEKLGLHLSPVGTGLAVRQDVAPGSKVARDTTITVEFEPPDIQVLR | 0.103
HMAPDNDELEKAKKIVNAFIEAKAKGLGVVSLGTKMIDAPVVKRAQKIIDQTIVMGKLSLNWQDEFFN | -0.0351
HMGAVVSPMPGVILDIKVKEGDSVSEGQTVIILEAMKMENEIVSEFTGTVSAIRVKKGDTVDTDAVLVEI | -0.393
HMDTIGSKVLAFLAGNLLDPTPFNYRFGYLYLNRTSKVIVEETDTYIDSGMRMTQEAVAEIMQKFAQ | -3.9
HMEKINLLVENNDNYRLDKIIALNMEELSRTQIQEMIGQGLVLVNGKVEKASYKTKLNDQIEITIED | 0.0401
HMQDQVTLIVQVNGKLRGQISISTDATKELIEQTALANENVQKFVDGQSIKKIIIVPGRLVNIV | -1.12
HMKEEVMVPNVVGKELSAALLEMQVKELYPKLQLKYSNFVDDKGTVLEQSPPAGSIVKAGRRINLVVSRGA | 0.144
HMHNPSYDMSKDVDILVMKFRDYNNLTDDEARFLLDKAKDAYYNTGKEILSDNEYDTLEKSLGQE | 0.178

Sequence | soluble fraction (log2)
HMDFFVLVGAYKTPDEAETIRAKIAFSGLDSSVSHGNDGRYRVRIGPFHSEGDARKAQSTLRANDIPGQII | -0.0926
HMQPQLFRVIADDGLNIRSGPGPEYPPVAPMLRKGTQVELLQAGDRWSKVEVVGSTDVEGWVNQRYLQAV | 0.0476
HMLDQAVPVFETPKYAVSYIQNRLVEMKAASPEEAASRFYESISESERRGLFEALLIKEAEES | -0.00154
HMTDLVVGLAGITLEPLRPAGKAEFNGSVVDVVSLGDYIEKSTAIQIVEIEGNRIVVHHGED | -0.0705
HMDNWYIAFNSFLSQNKLTAKNVSELTGLSKPTIDSYKQGKRKPTDENMQIIKDKLGFNISEILYN | -0.265
HMPKHDWDAFAGAIARRVHDHGMPVSQGELVRDMMDWFAGRKDFPPPDERTVRRKVSAIWRELNG | -1.02
HMATHWHITPNPNNGKFLISGLMQDDSFHLMDASGQWLRQLRTVNQELDLDLQPGVYFLKDNSGSVMKFVV | -0.98
HMEDIPENIRYKFLLKELKENEHLNILDKENIARKLTEIDLPELEKELLENEILNSTIKDYLGIKLV | 0.173
HMDLRVKRTNKMIMEAFIHLVEQKGYDNITVQEIADEAMINRATFYAHFKDKQDLYDHIFKQAI | -0.762
HMLVSPLDEIPGIGRNRKKTLLNHFGSAKTIEGASLEDLKKVDGISELIAKKIYNYFHLNKNF | -0.411
HMYEGNEFSSTGMFREDILAITAVHPMREDAVTELLARSNESEETLEMMIDEELLRRVAYGNHNYYMRRFR | -0.428
HMFTEPQKLVKRILNMLGHRYDDASIQARSDFQASNNYHKVQVKKKRESMEEYTAWLEEMYDAYRIN | -1.43
HMAGAITEREVEVLELLSRGLGNKEIAKELFVSEATVKSHLSHIYTKLAVDTRAGAVAAAIERRIIRAWR | -1.92
HMAKDEYGLTSNQRAFADEYIRNKGNATQAYLFAYPHIKKENTAAVNASRLLRNAKVSKYIADRTKEIL | 0.287
HMTIGLLISKARTNSGLTQAELATRAGTSQAAIARYESDRVSPSVSTLERVLRAAGEELVISSS | -0.0977
HMEPDDLTVIKGIGPVAAKDLNEQGIITFAQLAKLSDKDVAKIDEHMPFSADQIKDWREQAKELAK | 0.263
HMYSINKTEFGERIKSAREELKMTQTQLAQLLKTSQTTVAKYEHGEQIPRADVLATISKATGKSTDWLLFG | -0.017
HMFESQYIGKIATAITDISAFSGRLKIYDENWEARTLGEDAPEIKKGAKVKIVRHDDLTMFVEKK | -0.034
HMISAADLQTYLKGMDYPAGREDLVAHAQRNNAPESVITILQGFSDRTYRSAAEVSEEFGRE | 0.194
HMTEWSIHEVAQRSGVTTRTLRHYDAIGILSPTRTGANGYRYYGPEALVRLQRILLLRDLGLALSDIAE | -4.61
HMEQNTKAYEQVRTLTDLLNQYRHEYYNLSAPSVSDQEYDRLFDALAALEKQTGIVMSNSPTQTVG | 0.0359
HMRSIMAVSNYRHKKILEMVYQRKSVSADELAAEFGVSKITIRRDLDTLAMDKLLERTRGGAISISD | -2.67
HMDAPQRVTYLLPHSRGEVVSWLHRQGEVVAQEYEAEGVRVVVDLRYAQIRQAAKQFDVLPAEG | -0.0612
HMTEISGIEKFLASGAINGIGPAMAKKIVAEFGEKTLEIIAKSPNELLKVPGIGKKTAEKISTSYLEQ | -0.0669
HMFEPLTDREREVLQALADGLSDKEIAERLYISPATVRTHITAILGKLDANSRLQAVVVAARHNLVTL | -0.0803
